This data set addresses DosRK182R (Mycobacterium tuberculosis, UniProt P9WMF9 1-217, K182R). The data set is described as follows: EMSA; 4, 8, 16 uM protein; 20 mM MgCl2; […]; ITC: 20 mM Tris pH 8.0, 200 mM NaCl, 25 C, […]. The following applies: protein: recombinant; tags: His6 (pET28a); chain copies: 2; label: none (ethidium bromide stain); blunt. (Mobility shift assays separate free from complexed probe on a gel.)

The values below come from article PMC5999986.

B1: 20-bp DosR regulon consensus DNA (EM1/EM2) (dsDNA)
DNA 1: TTGGGGACTAAAGTCCCTAA
DNA 2: TTAGGGACTTTAGTCCCCAA
B1: the binding result is given as “binds”.
